{
  "source": "paper PMC7281375",
  "about": "“Therapeutic Targeting of Pancreatic Cancer via EphA2 Dimeric Agonistic Agents” (Pharmaceuticals, 2020)",
  "molecules": {"B1": {"name": "ephrinA1-Fc: dimeric natural ligand of EphA2, Fc dimerized ephrinA1 (protein)", "chain": "DRHTVFWNSSNPKFRNEDYTIHVQLNDYVDIICPHYEDHSVADAAMEQYILYLVEHEEYQLCQPQSKDQVRWQCNRPSAKHGPEKLSEKFQRFTPFTLGKEFKEGHSYYYISKPIHQHEDRCLRLKVTVSGKITHSPQAHDNPQEKRLAADDPEVRVLHSIGHS", "modifications": "left off: Fc, end not stated, kept"}},
  "key": {"[1]": {"test_system": "EphA2 receptor", "details": "monomeric agents; cited from earlier work", "description": "In order to evaluate the ability of each agent to activate the receptor, we tested them in various cellular assays as reported below. Because receptor activation causes its internalization and degradation, we opted to monitor the ability of each agent to reduce EphA2 levels over time, after exposure of cells to test ligands. […] First, we wanted to explore the effect of the linker length between the monomers and therefore tested side by sid ..."}, "[2]": {"test_system": "EphA2 receptor", "assay": "EphA2 degradation, Western blot of BxPC3 cell lysates", "assay_type": "cell-based", "details": "BxPC3 cells, 1 h, several concentrations", "procedure": "In order to evaluate the ability of each agent to activate the receptor, we tested them in various cellular assays as reported below. Because receptor activation causes its internalization and degradation, we opted to monitor the ability of each agent to reduce EphA2 levels over time, after exposure of cells to test ligands. […] For these experiments we initially treated HCT116 cells with 10 μM concentration of each agent for 2.5 h, and cells lysates were probed for total EphA2 using anti-EphA2 antibody (1C11A12; Thermo Fisher Scientific) (Figure 3a). […] Because these agents had optimized side chains, we expected these to work at much lower concentrations compared to dimeric agents derived from 135B12 (Table 1).\nFigure 3 Dimeric and tetrameric EphA2 agonistic ligands degrade EphA2 receptor. […] Total ERK1/2 blot was used as a loading control.\nFigure 5 Pharmacological inhibition of EphA2 expression partially impairs migration of pancreatic cancer cells. […] (c) Western blot of BxPC3 cell lysates after exposure for 5 min, 1 h or 24 h to indicated agents. (d) Representative images from treated wells at times 0 and 30 h. **, p < 0.005; ***, p < 0.001. Error bars represent standard deviation. […]"}, "[3]": {"test_system": "EphA2 receptor", "assay": "EphA2 degradation, Western blot of HCT116 cell lysates", "assay_type": "cell-based", "details": "HCT116 cells, ephrinA1-Fc 1 μg/mL, 2.5 h"}, "[4]": {"test_system": "BxPC3 cells", "assay": "Cell proliferation during migration study", "assay_type": "cell-based", "details": "BxPC3, treatments of the migration assay", "description": "Subsequently, we probed the effect of the pharmacological inhibition of EphA2 by our dimeric agents on the migratory properties of WT-BxPC3 in a similar assay (Figure 5a). […] Of note is that cell proliferation was not affected by either treatment with ephrinA1-Fc or by our agents."}, "[5]": {"test_system": "EphA2-KO BxPC3 cells", "assay": "Scratch wound cell migration assay (IncuCyte S3), EphA2-KO BxPC3", "assay_type": "cell-based", "details": "EphA2-KO BxPC3, ephrinA1-Fc versus Fc", "description": "The monomeric, unbound EphA2 receptor is known to be pro-oncogenic, inducing cell migration of cancer cells, while ephrinA1-Fc, inducing EphA2 dimer formation can suppressed this activity. To more directly examine the effect EphA2 on pancreatic cancer cell migration we first prepared a stable BxPC3 EphA2 knockout (KO) cell line and monitored its migratory properties using the scratch wound method and live-cell analysis (IncuCyte S3, Sartorius) (Figure 4). Briefly, homogeneous scratch wounds on plated cells were created by a 96-pin mechanical device (WoundMaker, Sartorius, Göttingen, Germany). Subsequently, live-cell imaging was performed to monitor the rate of wound closure. As controls, we also tested wild-type (WT) BxPC3 cells, and each cell type was treated with ephrinA1-Fc, or Fc as control (Figure 4). […]\n(§1) Cells were plated at 50 × 10^3 cells/well density in 96-well ImageLock plates (Sartorius). […] Plates were imaged every two hours using IncuCyte S3 (Sartorius), and relative wound areas were analyzed using the algorithm of the imager cell migration software module."}, "[6]": {"test_system": "WT-BxPC3 cells", "assay": "Scratch wound cell migration assay (IncuCyte S3), WT-BxPC3", "assay_type": "cell-based", "description": "The monomeric, unbound EphA2 receptor is known to be pro-oncogenic, inducing cell migration of cancer cells, while ephrinA1-Fc, inducing EphA2 dimer formation can suppressed this activity. To more directly examine the effect EphA2 on pancreatic cancer cell migration we first prepared a stable BxPC3 EphA2 knockout (KO) cell line and monitored its migratory properties using the scratch wound method and live-cell analysis (IncuCyte S3, Sartorius) (Figure 4). Briefly, homogeneous scratch wounds on plated cells were created by a 96-pin mechanical device (WoundMaker, Sartorius, Göttingen, Germany). Subsequently, live-cell imaging was performed to monitor the rate of wound closure. As controls, we also tested wild-type (WT) BxPC3 cells, and each cell type was treated with ephrinA1-Fc, or Fc as control (Figure 4).\nas §1, with “(Sartorius). The following day, cells were scratched using the WoundMaker (Sartorius) and washed three times with PBS. Subsequently, cells were treated with the indicated compounds in RPMI-1640 complete media.” for “(Sartorius).”"}},
  "note": "“Also recorded” adds a separate entry of the source.",
  "data": [
    {"molecule": "COc1ccc(C[C@H](NC(=O)[C@H](C)NC(=O)[C@H](CC(C)C)NC(=O)c2oc3c(OC)c(OC)ccc3c2C)C(=O)N2CCC[C@H]2C(=O)N[C@@H](CC(=O)O)C(=O)N[C@@H](C)C(=O)N[C@H](C(=O)N2C[C@H](O)C[C@H]2C(=O)N[C@@H](Cc2ccc(Cl)cc2)C(=O)N[C@@H](CCCNC(=N)N)C(=O)N2CCC[C@H]2C(N)=O)C(C)C)cc1", "note": "[135H11]", "values": [
      {"measurement": "concentration at which receptor activation was shown", "setting": "[1]", "value": "≥ 100", "unit": "µM"}
    ]},
    {"molecule": "COc1ccc(C[C@H](NC(=O)[C@H](C)NC(=O)[C@H](CC(C)C)NC(=O)c2oc3c(OC)c(OC)ccc3c2C)C(=O)N2CCC[C@H]2C(=O)N[C@@H](CC(=O)O)C(=O)N[C@@H](C)C(=O)N[C@H](C(=O)N2C[C@H](O)C[C@H]2C(=O)N[C@@H](Cc2ccc(Cl)cc2)C(=O)N[C@@H](CCCNC(=N)N)C(=O)N2CCC[C@H]2C(=O)NCC(=O)NCCCC[C@H](NC(=O)CNC(=O)[C@@H]2CCCN2C(=O)[C@H](CCCNC(=N)N)NC(=O)[C@H](Cc2ccc(Cl)cc2)NC(=O)[C@@H]2C[C@@H](O)CN2C(=O)[C@@H](NC(=O)[C@H](C)NC(=O)[C@H](CC(=O)O)NC(=O)[C@@H]2CCCN2C(=O)[C@H](Cc2ccc(OC)cc2)NC(=O)[C@H](C)NC(=O)[C@H](CC(C)C)NC(=O)c2oc3c(OC)c(OC)ccc3c2C)C(C)C)C(=O)N[C@@H](CCCCN)C(=O)NCCCC[C@H](NC(=O)[C@H](CCCCN)NC(=O)[C@H](CCCCNC(=O)CNC(=O)[C@@H]2CCCN2C(=O)[C@H](CCCNC(=N)N)NC(=O)[C@H](Cc2ccc(Cl)cc2)NC(=O)[C@@H]2C[C@@H](O)CN2C(=O)[C@@H](NC(=O)[C@H](C)NC(=O)[C@H](CC(=O)O)NC(=O)[C@@H]2CCCN2C(=O)[C@H](Cc2ccc(OC)cc2)NC(=O)[C@H](C)NC(=O)[C@H](CC(C)C)NC(=O)c2oc3c(OC)c(OC)ccc3c2C)C(C)C)NC(=O)CNC(=O)[C@@H]2CCCN2C(=O)[C@H](CCCNC(=N)N)NC(=O)[C@H](Cc2ccc(Cl)cc2)NC(=O)[C@@H]2C[C@@H](O)CN2C(=O)[C@@H](NC(=O)[C@H](C)NC(=O)[C@H](CC(=O)O)NC(=O)[C@@H]2CCCN2C(=O)[C@H](Cc2ccc(OC)cc2)NC(=O)[C@H](C)NC(=O)[C@H](CC(C)C)NC(=O)c2oc3c(OC)c(OC)ccc3c2C)C(C)C)C(N)=O)C(C)C)cc1", "note": "[135I1]", "values": [
      {"measurement": "EphA2 degradation", "setting": "[2]", "value": "not significantly more effective than its dimeric counterpart; also recorded: successfully degraded EphA2 receptor at nanomolar concentrations"}
    ]},
    {"molecule": "B1", "values": [
      {"measurement": "total EphA2 level (anti-EphA2 blot)", "setting": "[3]", "value": "very effective in causing EphA2 degradation; also recorded: complete degradation of the receptor"},
      {"measurement": "cell proliferation", "setting": "[4]", "value": "not affected"},
      {"measurement": "cell migration, rate of migration over 36 h", "setting": "[5]", "value": "did not significantly decrease the rate of migration"},
      {"measurement": "cell migration, relative wound density at 36 h", "setting": "[6]; WT BxPC3, 1 μg/mL, versus Fc", "value": "WT cells treated with Fc migrated significantly faster than WT cells treated with ephrinA1-Fc"},
      {"measurement": "cell migration, relative wound density after 30 h", "setting": "[6]; WT-BxPC3, 1 µg/mL", "value": "significant decrease of cell migration"}
    ]}
  ]
}
